From patent US20230295310A1 (ABCELLERA BIOLOGICS, published 2023) come the findings set out here.

One assay has as its target T1, human CD3e/d (human, UniProt P07766 23-126; P04234 22-105).
T1 construct: Bought soluble protein; also called hCD3e/d; human CD3/ed (Sino CT038-H2508H)
In words: SPR (Carterra LSA), mAb on chip. The essentials: (§1)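 Purified mAbs amine-coupled (EDC/S-NHS) at 10 μg/mL in 10 mM NaOAc pH 4.25 onto an HC-30M chip, with benchmark and negative-control mAbs; analyte flowed over the array. Double-referenced sensorgrams fitted globally to a 1:1 Langmuir model for ka, kd and KD.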

The next assay has as its target T2, human CD3e/g (human, UniProt P07766 23-126; P09693 23-116).
T2 construct: Bought soluble protein; also called hCD3e/g; human CD3e/g (Acro CDD-C52W4)
Nature of the assay: SPR (Carterra LSA), mAb on chip. The procedure, abridged: as §1

Assay [1] deals with T3, cynomolgus monkey CD3 expressed on cyno primary T cells (cynomolgus monkey, UniProt Q95LI5 22-198; Q95LI8 22-171; Q95LI7 23-181).
T3 construct: whole, on cells; CD3 complex on purified cynomolgus monkey CD3 pan T cells; also called cyno CD3
In words: flow cytometry, cyno primary T cells. How it is done: Purified antibodies were confirmed to bind CD3 expressed on cells using the CytoFLEX S or LX flow cytometers (Beckman Coulter). Antibodies were diluted to 25 nM in FACS buffer (PBS+2% FBS) and were incubated with CD3-expressing cells for 30 minutes at 4° C. […] The median fluorescence intensity of the binding signal for each antibody was normalized to the isotype control to obtain a fold over isotype value. An antibody with a fold over isotype (FOI) of ≥10 was considered to be positive for binding.
(Flow cytometry measures light scatter and fluorescence of single cells or particles in a stream.)

T3 sequence (Q95LI5 22-198, chain 1 of 3): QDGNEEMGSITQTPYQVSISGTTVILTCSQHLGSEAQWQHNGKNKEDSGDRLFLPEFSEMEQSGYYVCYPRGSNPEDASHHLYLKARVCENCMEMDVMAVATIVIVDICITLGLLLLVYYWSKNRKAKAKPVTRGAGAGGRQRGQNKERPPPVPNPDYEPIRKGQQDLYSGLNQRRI
T3 sequence (Q95LI8 22-171, chain 2 of 3): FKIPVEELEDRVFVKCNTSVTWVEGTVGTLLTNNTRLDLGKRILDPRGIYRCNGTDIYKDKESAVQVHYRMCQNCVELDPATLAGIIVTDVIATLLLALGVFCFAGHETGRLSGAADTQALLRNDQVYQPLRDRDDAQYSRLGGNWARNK
T3 sequence (Q95LI7 23-181, chain 3 of 3): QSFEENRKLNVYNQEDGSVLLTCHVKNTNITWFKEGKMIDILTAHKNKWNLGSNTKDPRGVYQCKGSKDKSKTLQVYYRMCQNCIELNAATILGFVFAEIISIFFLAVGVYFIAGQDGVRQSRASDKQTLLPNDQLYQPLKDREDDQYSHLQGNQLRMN
T1 sequence (P07766 23-126, chain 1 of 2): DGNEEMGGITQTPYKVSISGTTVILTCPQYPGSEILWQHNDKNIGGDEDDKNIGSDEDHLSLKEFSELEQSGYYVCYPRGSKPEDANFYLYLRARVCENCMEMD
T1 sequence (P04234 22-105, chain 2 of 2): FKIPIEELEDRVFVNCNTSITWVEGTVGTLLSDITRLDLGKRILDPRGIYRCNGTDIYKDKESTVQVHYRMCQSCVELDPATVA
T2 sequence (P07766 23-126, chain 1 of 2): as the sequence (P07766 23-126, chain 1 of 2) above
T2 sequence (P09693 23-116, chain 2 of 2): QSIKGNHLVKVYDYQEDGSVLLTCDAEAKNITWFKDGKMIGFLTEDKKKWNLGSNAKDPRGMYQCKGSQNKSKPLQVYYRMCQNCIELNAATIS

B1: mAb 100 (antibody, V domains shown)
VH: QVQLVESGGGVVQPGRSLRLSCVASGFTFRGYGMHWVRQAPGKGLEWVAIIYYDGKNKYYADSVKGRFTISRDNSKNTLYLQMNSLRVEDTALYYCARGGGYNWFDPWGQGTLVTVSS
VL: DIQMTQSPSSLSASVGDRVTITCRASQSISTYLNWYQQKPGKAPKLLIYTASSLQSGVPSRFSGSGSGTVFTLTISSLQPEDFAIYYCQRSYSPPFTFGPGTRLDIK
notes: VH and VL only
With B1, the dissociation constant (Kd) in the assay with human CD3e/d came to 20.5 nM; with human CD3e/g it was 25.5 nM.

B2: mAb 106 (antibody, V domains shown)
VH: QVQLVESGGGVVQPGRSLRLSCAASGFTFRSYGMHWVRQAPGKGLEWVAIIWYNGNKKDYVDSVKGRFTISRDNSKNTLYLQMNSLRAEDTALYYCARGPGYNWFDPWGQGTLVTVSS
VL: DIQMTQSPPSLSASVGDRVTITCRASQRISSYLNWYQQKPGKAPKLLIYAASSLQSGVPSRFSGSGSGTDFTLTISSLQPEDFATYYCQQSDSFPLTFGGGTKVEII
notes: VH and VL only
As to B2, the Kd turned out to be 17.1 nM in the assay with human CD3e/d and 10.6 nM with human CD3e/g.

B3: mAb 95 (antibody, V domains shown)
VH: QAHLVESGGGVVQPGRSLRLSCSASGFTFSGYGMHWVRQAPGKGLEWVALIYFDGRNKYYADSVKGRFTISRDNSKNTLYLQMNSLRAEDTAVYYCARGGGYNWFDPWGQGTLVTVSS
VL: DIQMTQSPSSLSASVGDRVTITCRASQSINNYLSWYQQKPGKAPKLLIYLASNLQSGVPSRFSGSGSGTDFTLTISSLQPEDFATYYCQLSYRSPFTFGPGTKVDVK
notes: VH and VL only
Regarding B3, the equilibrium dissociation constant (Kd) with human CD3e/d amounted to 1.79 nM; with human CD3e/g it was 9.22 nM.

B4: mAb 202 (antibody, V domains shown)
VH: QVQLVESGGGVVQPGRSLRLSCAASGFTFSGYGMHWVRQAPGKGLEWVAIIYYNGKKEYYADSVKGRFTISRDNSKNTLYLQMNSLRAEDTAVYFCTRGEGYNWFDPWGQGTLVTVSS
VL: EIVMTQSPATLSVSPGERATLSCRASQSVSSNLAWYQQKPGQAPRLLIYGASTRATGIPARFSGSGSGTEFTLTISSLQSEDFAVYYCKQYKNWPLTFGGGTKVEIK
notes: VH/VL only
B4: the binding result in assay [1] is given as “no binding (tested: FOI <10 (FOI >=10 = positive); 25 nM)”.

B5: mAb 190 (antibody, V domains shown)
VH: QVQLVESGGGVVQPGRSLRLSCAASGFTFSGYGMHWVRQAPGKGLEWVAIIYYNGKKEYYADSVKGRFTISRDNSKNTLYLQMNSLRAEDTAVYYCTRGEGYNWFDPWGQGTLVTVSS
VL: EIVMTQSPATLSVSPGERATLSCRASQSVSSNLAWYQQKPGQAPRLLIYGASTRATGIPARFSGSGSGTEFTLTISSLQSEDFAVYYCKQYNNWPLTFGGGTKVEIK
notes: VH/VL only
Take B5: the binding result in assay [1] is reported as “no binding (tested: FOI <10 (FOI >=10 = positive); 25 nM)”.

B6: mAb 200 (antibody, V domains shown)
VH: QVQLAESGGGVVQPGRSLRLSCAASGFTFSGYGMHWVRQAPGKGLEWVAIIYYNGKKEYYADSVKGRFTISRDNSKNTLYLQMNSLRAEDTAVYFCTRGEGYNWFDPWGQGTLVTVSS
VL: EIVMTQSPATLSVSPGERATLSCRASQSVSSNLAWYQQKPGQAPRLLIYGASTRATGIPARFSGSGSGTEFTLTISSLQSEDFAVYYCKQYKNWPLTFGGGTKVEIK
notes: VH/VL only
Turning to B6, the binding result in assay [1] is reported as “no binding (tested: FOI <10 (FOI >=10 = positive); 25 nM)”.

B7: mAb 207 (antibody, V domains shown)
VH: QVQLVESGGGVVQPGRSLRLSCAASGFTFSGYGMHWVRQAPGKGLEWVAIIYYNGKKEYYADSVKGRFTISRDNSRNTLFLQMNSLRAEDTAIYYCTRGEGYNWFDPWGQGTLVTVSS
VL: EIVMTQSPATLSVSPGERATLSCRASQSVSSNLAWYQQKPGQAPRLLIYGASTRATGIPARFSGSGSGTEFTLTISSLLSEDFAVYYCKQYNNWPLTFGGGTKVEIK
notes: VH/VL only
With B7, the binding result in assay [1] is listed as “no binding (tested: FOI <10 (FOI >=10 = positive); 25 nM)”.

B8: mAb 101 (antibody, V domains shown)
VH: QGQLVESGGGVVQPGRSLRLSCAASGFTFRGFGMHWVRQAPGKGLEWVAIIYYDGKNKYYADSVKGRFTISRDNSKNMLYLQMNSLRAEDTAVYYCAKGGGYNWFDPWGQGTLVTVSS
VL: DIQMTQSPSSLSASVGDRVTITCRASQSISTYLNWYQQKPGKAPKLLIYSASSLQSGVPSRFSGSGSGTDFTLTISNLQPEDFAIYYCQRSYSPPFTFGPGTKLDIR
notes: VH and VL only
Take B8: the equilibrium dissociation constant (Kd) in the assay with human CD3e/d is 9.06 nM; in the assay with human CD3e/g it was 10.9 nM.

B9: mAb 96 (antibody, V domains shown)
VH: QAHLVESGGGVVQPGRSLRLSCSASGFTFSGYGMHWVRQAPGKGLEWVSLIYFDGRNKYYADSVKGRFTISRDNSKNTLYLQMNSLRAEDTAVYYCARGGGYNWFDPWGQGTLVTVSS
VL: DIQMTQSPSSLSASVGDRVTITCRASQSINNYLSWYQQKPGKAPKLLIYLASNLQSGVPSRFSGNGSGTDFTLTISSLQPEDFATYYCQLSYRSPFTFGPGTKVDVK
notes: VH and VL only
With B9, the equilibrium dissociation constant (Kd) with human CD3e/d came out at 7.73 nM; with human CD3e/g, 11.9 nM.

B10: mAb 98 (antibody, V domains shown)
VH: QVHLVESGGDVVQPGRSLRLSCSASGFTFSGYGMHWVRQAPGKGLEWVALIYFDGRNKYYADSVKGRFTISRDNSKNTLYLQMNSLRAEDTAVYYCARGGGYNWFDPWGQGTLVTVSS
VL: DIQMTQSPSSLSASVGDRVTITCRASQSINNYLNWYQQKPGKAPKLLIYLASSLQSGVPSRFSGSGSGTDFTLTISSLQPEDLATYYCQLSYSSPFTFGPGTKVDVK
notes: VH and VL only
On to B10, for which the Kd in the assay with human CD3e/d stood at 9.71 nM; with human CD3e/g, 11.2 nM.

B11: mAb 110 (antibody, V domains shown)
VH: QVQLVESGGGVVQPGRSLRLSCAASGFTFRSYGMHWVRQAPGKGLEWVAIIWYNGNKKDYVDSVKGRFTISRDNSKNMLYLQMNSLRAEDTALYYCARGPGYNWFDPWGQGTLVTVSS
VL: DIQMTQSPPSLSASVGDRVTITCRASQRISSYLNWYQQRPGKAPKLLIYAASSLQSGVPSRFSGSGSGTDFTLTISSLQPEDFATYYCQQTDSFPLTFGGGTKVEII
notes: VH and VL only
As for B11, the dissociation constant (Kd) in the assay with human CD3e/d was determined as 18.4 nM; in the assay with human CD3e/g, 8.97 nM.

B12: mAb 94 (antibody, V domains shown)
VH: QVHLVESGGGVVQPGRSLRLSCSASGFTFSGYGMHWVRQAPGKGLEWVALIYFDGRNKYYADSVKGRFTISRDNSKNTLYLQMNSLRAEDTAVYYCARGGGYNWFDPWGQGTLVTVSS
VL: DIQMTQSPSSLSASVGDRVTITCRASQSISNYLNWYQQKPGKAPKLLIYLASSLQSGVPSRFSGSGSGTDFTLTINSLQPEDFASYYCQLSYSSPFTFGPGTKVDVN
notes: VH and VL only
Regarding B12, the Kd with human CD3e/d came out at 1.57 nM; with human CD3e/g, 7.8 nM.

B13: mAb 111 (antibody, V domains shown)
VH: EVQLVESGGVLVKTGGSLRLSCVASGFSFKKAWMNWVRQAPGKGLEWVGRIKRNSDGGAADYAAPVKDRFTLSRDDSKNTLYLQMNSLKTEDTAVYYCTTLDSSSWYVGYYYMDVWGKGTTVTVSS
VL: DIHMTQSPSSVSASLGDRVTFTCRASQNINNWLAWYQQKPGKAPKLLIYTASSLQSGVPSRFSGSGSGTDFTLTISSLQPDDFATYYCQQAHSLPITFGQGTRLGIK
notes: VH and VL only
For the molecule B13, the figures for the Kd with human CD3e/d and with human CD3e/g were 19.6 nM and 7.44 nM, respectively.

B14: mAb 127 (antibody, V domains shown)
VH: EVQLVESGGGLVKTGGSHRLSCVASGFSFKKAWMNWVRQAPGKGLEWVGRIKRNSDGGTTDYAAPVKGRFILSRDDSKNTLYLQMNSLKTEDTAVYYCTTLDSSSWYVGYYYMDVWGKGTTVTVSS
VL: DIQMTQSPSSVSASVGDRVTITCRASQDINNWLAWYQQKPGKAPKILIYTASNLQSGVPSRFSGSGSGTDFTLTISTLQPEDFATYFCQQAHGLPITFGQGTRLEIK
notes: VH and VL only
Regarding B14, the equilibrium dissociation constant (Kd) was 65 nM in the assay with human CD3e/d and 15.4 nM in the assay with human CD3e/g.

B15: mAb 123 (antibody, V domains shown)
VH: DVQLVESGGGTVKTGGSLRLSCVASGFSFKKAWMNWVRQAPGKGLEWVGRIKKNSDDGTADYAAPVKGRFTISRDDSKRTLFLQMNSLQTEDTAVYYCTTLDSSSWFVGYYYMDVWGKGTTVTVSS
VL: DIQMTQSPSSVSASVGDRVIITCRASQDINNWLAWYQQKPGKAPKLLIYTASSLQSGVPSRFSGSGSVSDFTLTIDSLQPEDFATYYCQQAHSLPITFGQGTRLEIK
notes: VH and VL only
B15: the Kd was determined as 56.1 nM with human CD3e/d and 16.6 nM in the assay with human CD3e/g.

B16: mAb 129 (antibody, V domains shown)
VH: EVQLVESGGDLVKTGGSLRLSCVASGFSFKKAWMNWVRQAPGKGLEWVGRIKRNTDGGATDYAAPVKDRFTLSRDDSKNTLYLQMNSLKTEDTAVYYCTTLDSSSWYVGYYYMDVWGKGTTVTVSS
VL: DIHMTQSPSSVSASLGDRVTFTCRASQDINNWLAWYQQKPGKAPRLLIYTASSLQSGVPSRFSGSGSGTDFTLTISSLQPDDFATYYCQQAHSLPITFGQGTRLGIE
notes: VH and VL only
In the case of B16, the results for the Kd with human CD3e/d and in the assay with human CD3e/g were 26.4 nM and 6.62 nM, respectively.

B17: mAb 288 (antibody, V domains shown)
VH: EVQLLESGGNLGQPGGSLRLSCAVSGFTFSSYTMSWVRQAPGKGLEWVSAISGSGGRTYYADSVKGRFTISRDNSKNTLYLQMKSLRAEDTAVYYCAKKFSYYYYYMDVWGKGTTVTVSS
VL: SYELTQPLSVSVALGQTARITCGGNNIGSKDVHWYQQKPGQAPVLVIYRDSNRPSGIPERFSGSNSGNTATLTISSAQAGDEADYYCQVWDSNTAVFGGGTQLTAL
notes: VH/VL only
In the case of B17, the binding result in assay [1] was “no binding (tested: FOI <10 (FOI >=10 = positive); 25 nM)”.

B18: mAb 49 (antibody, V domains shown)
VH: EVQLVESGGGLVPPGGSLRLSCVASGFTLRSYTMNWVRQAPGQGLEWISYISSTSRTIYYSDSVKGRFTISRDNAKNSLYLQVNSLRDEDTALYYCAREDYYDSSGFDCWGQGTLVTVSS
VL: AIRMTQSPSSFSASTGDRVTITCRASQGIFNYLAWYQQKPGKAPKLLIYSTSTLQSGVPSRFSGSGSGTDFTLTIRGLQSEDLATYYCQQYYSFPRTFGQGTKVDIK
notes: VH and VL only
For the molecule B18, the Kd in the assay with human CD3e/d was found to be 10.8 nM; with human CD3e/g it was 3.64 nM.

By Kd is commonly meant a measure of binding affinity in units of concentration.
